Data from patent US8093068 (Janssen / Centocor, dated 2012).

Target: T1, soluble human TLR3 extracellular domain (human, UniProt O15455 24-704)
T1 construct: extracellular domain; Coated on the ELISA plate; also called hTLR3; extracellular domain of human TLR3
Test: ELISA, soluble human TLR3 extracellular domain coated on plate, antibody titrated, anti-mouse IgG-HRP detection
Procedure: All 16 mAbs were assessed for binding to the extracellular domain of human TLR3 using an ELISA format as compared to the parental murine mAb C1068. Briefly, soluble human TLR3 extracellular domain was coated into the wells of a 96 well plate and candidate mAbs were incubated at various concentrations (10-3 to 103 ng/ml) and bound antibody was detected with rabbit anti-mouse IgG-HRP for murine IgG1 isotypes (Zymed, South San Francisco, Calif.) or HRP-labeled anti-human IgG (Jackson 109-036-088) for human IgG4 isotypes. $EC50$ values were determined and the screening results are shown in FIG. 9 and Table 2 below.

- EC50: 8 ng/mL
B1: murine anti-TLR3 mAb C1068 (antibody, V domains shown)
VH: QVQLQQPGAELVQPGTSVRLSCKASGYIFTTYWIHWVKQRPGQGLEWIGEINPNNGRINYNEKFKTKATLTVDKSSSTAYMQLSSLTSEDSAVYYCTRVGVMITTFPYWGQGTLVTVSA
VL: DIQMTQSPASLSASVGETVTITCRASGNIHNYLAWYQQKQGKSPQLLVYNAKTLADGVPSRFSGSESGTQYSLKINSLQPEDFGSYYCQHFWSTPFTFGSGTKLELK
notes: The ELISA text implies a murine IgG1 isotype (detected with anti-mouse IgG-HRP for murine IgG1 isotypes); also called parental murine mAb C1068
